Assay results reported in patent US20220220218A1 (JIANGSU HENGRUI MEDICINE, published 2022).

How the values were obtained:
[1] = molecular target: human CD73 on tumor cell line MDA-MB-231 that highly expresses human CD73 (human) (UniProt P21589); assay: cell-based or functional assay
[2] = molecular target: T1, human CD73 (huCD73) protein, antigen of the Biacore assay (human, UniProt P21589 27-547, limits assumed); assay: SPR Biacore T200; antibody captured on Protein A chip, CD73 in flow; 1:1 Langmuir
T1 construct: also called human CD73 antigen
T1 sequence (looked up): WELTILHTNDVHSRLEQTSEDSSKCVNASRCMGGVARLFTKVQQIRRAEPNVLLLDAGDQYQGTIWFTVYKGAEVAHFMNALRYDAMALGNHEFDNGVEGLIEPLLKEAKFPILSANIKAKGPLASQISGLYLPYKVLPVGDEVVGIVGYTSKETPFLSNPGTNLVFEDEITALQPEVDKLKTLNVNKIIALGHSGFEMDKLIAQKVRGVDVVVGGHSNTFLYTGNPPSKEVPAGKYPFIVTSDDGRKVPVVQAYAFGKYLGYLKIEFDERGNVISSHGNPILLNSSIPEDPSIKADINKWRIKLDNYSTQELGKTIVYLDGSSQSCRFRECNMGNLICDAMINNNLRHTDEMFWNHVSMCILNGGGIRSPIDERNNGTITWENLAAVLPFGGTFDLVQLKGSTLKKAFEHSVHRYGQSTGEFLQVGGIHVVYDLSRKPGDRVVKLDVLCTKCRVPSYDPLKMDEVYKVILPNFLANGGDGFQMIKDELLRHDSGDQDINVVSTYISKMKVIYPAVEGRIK
Excerpt: In this experiment, Biacore instrument was used to determine the affinity of the humanized anti-CD73 antibodies to be tested with human CD73 (huCD73) and monkey CD73 (cynoCD73).
A certain amount of test antibody was affinity-captured with Protein A biosensing chip (Cat. #29127556, GE), and then a certain concentration of human or monkey CD73 antigen was allowed to flow through the surface of the chip. The reaction signals were detected in real time with Biacore instrument (Biacore T200, GE) to generate a binding and dissociation curve. At the end of each cycle, after the dissociation was completed, the biosensor chip was washed and regenerated with Glycine-HCl, pH1.5 (Cat. #BR-1003-54, GE). The running buffer for the assay was 1×HBS-EP buffer solution (Cat. #BR-1001-88, GE).
The data obtained from the experiment was fitted against (1:1) Langmuir model using GE Biacore T200 Evaluation version 3.0 software, and the affinity values were obtained, as shown in Table 12 and Table 13 for details.

Work on “MEDI9447 (antibody MEDI9447 disclosed in patent application WO2016075099)” yielded an IC50 (nM) in the assay showing the inhibition of enzyme activity in MDA-MB-231 cell [1] of 0.565 nM.

B1: CH110 (antibody, V domains shown)
VH: QVQLQQSGAELARPGASVQMSCKASGYIFTSYTMHWVKQRPGQGLEWIGYINPNSFYIEYNQKFKDKATLTADTSSSTAYMQLSSLTSEDSAVYYCARGDYDLFYDMDNWGQGTSVTVSS
VL: DIQMTQSPSSLSASLGERVSLTCRASQDIGNSLNWLQQEPDGTIKRLIYATFRLDSGVPKRFSGSRSGSDYSLTISSLESEDFVDYYCQQYASFPWTFGGGTKLEIK
notes: also called chimeric antibody of mab110
B1 gave a Kd [2] of 0.265 nM, a koff [2] of 0.000147 s⁻¹ and a kon [2] of 556000 M⁻¹ s⁻¹.

B2: CH127 (antibody, V domains shown)
VH: EVQLQQSGPELVKPGESVKISCKASGYSFTAYFMNWVMQSHRKSLEWIGRIYHNNGDTFYSQKFKGKATLTVDKSSNTVHMELRSLTSEDSAVYFCATSYVGDWGQGTTLTVSS
VL: DIQMTQSPSSLSASLGERVSLTCRASQDIGDSLNWLQQAPDGTLKRLIYATSSLDSGVPRRFSGSRSGSDYSLTISSLESEDFVDYYCLQYASFPWTFGGGTKLEIK
notes: also called chimeric antibody of mab127
B2 gave a Kd [2] of 0.139 nM, a koff [2] of 3.31e-05 s⁻¹ and a kon [2] of 239000 M⁻¹ s⁻¹.

B3: Hab108.33 (antibody, V domains shown)
VH: EVTLKESGPVLVKPTETLTLTCTVSGFSLSSYGIQWVRQPPGKLLEWLGVIWSGGSADYNAAFISRLTISKDTSKSQVVLTMTNMDPVDTATYYCAGQYGSVWGQGTLVTVSS
VL: DIQMTQSPSSLSASVGDRVTITCRASQDIGDRLNWLQQKPGGAIKRLIYATSSLDSGVPSRFSGSGSGTEYTLTISSLQPEDFATYYCLQYAGSWTFGGGTKVEIK
notes: VL3 + VH3; full-length antibody
B3 was tested, and the Kd [2] was 0.481 nM, the koff [2] was 0.000123 s⁻¹ and the kon [2] was 255000 M⁻¹ s⁻¹.

B4: Hab108.15 (antibody, V domains shown)
VH: EVTLKESGPVLVKPTETLTLTCTVSGFSLKSYGIQWVRQPPGKLLEWLGVIWSGGSADYNAAFISRLTISKDTSKSQVVLTMTNMDPVDTATYYCAGQYGSVWGQGTLVTVSS
VL: DIQMTQSPSSLSASVGDRVTITCRASQDIGDRLNWYQQKPGKAPKRLIYATSSLDSGVPSRFSGSGSGTEFTLTISSLQPEDFATYYCLQYAGSWTFGGGTKVEIK
notes: VL1 + VH5; full-length antibody
B4 was tested, and the Kd [2] was 0.485 nM, the koff [2] was 0.000121 s⁻¹ and the kon [2] was 249000 M⁻¹ s⁻¹.

B5: Hab108.23 (antibody, V domains shown)
VH: EVTLKESGPVLVKPTETLTLTCTVSGFSLSSYGIQWVRQPPGKLLEWLGVIWSGGSADYNAAFISRLTISKDTSKSQVVLTMTNMDPVDTATYYCAGQYGSVWGQGTLVTVSS
VL: DIQMTQSPSSLSASVGDRVTITCRASQDIGDRLNWLQQKPGKAIKRLIYATSSLDSGVPSRFSGSGSGTEYTLTISSLQPEDFATYYCLQYAGSWTFGGGTKVEIK
notes: VL2 + VH3; full-length antibody
Molecule B5 has a Kd [2] of 0.913 nM, a koff [2] of 0.000187 s⁻¹ and a kon [2] of 205000 M⁻¹ s⁻¹.

B6: Hab108.25 (antibody, V domains shown)
VH: EVTLKESGPVLVKPTETLTLTCTVSGFSLKSYGIQWVRQPPGKLLEWLGVIWSGGSADYNAAFISRLTISKDTSKSQVVLTMTNMDPVDTATYYCAGQYGSVWGQGTLVTVSS
VL: DIQMTQSPSSLSASVGDRVTITCRASQDIGDRLNWLQQKPGKAIKRLIYATSSLDSGVPSRFSGSGSGTEYTLTISSLQPEDFATYYCLQYAGSWTFGGGTKVEIK
notes: VL2 + VH5; full-length antibody
Work on B6 yielded a Kd [2] of 0.349 nM, a koff [2] of 0.000101 s⁻¹ and a kon [2] of 290000 M⁻¹ s⁻¹.

B7: Hab108.34 (antibody, V domains shown)
VH: EVTLKQSGPGLVKPTETLTLTCTVSGFSLSSYGIQWVRQPPGKGLEWLGVIWSGGSADYNAAFISRLTISKDTSKSQVVLTMTNMDPVDTATYYCAGQYGSVWGQGTLVTVSS
VL: DIQMTQSPSSLSASVGDRVTITCRASQDIGDRLNWLQQKPGGAIKRLIYATSSLDSGVPSRFSGSGSGTEYTLTISSLQPEDFATYYCLQYAGSWTFGGGTKVEIK
notes: VL3 + VH4; full-length antibody
For B7, the Kd [2] was 0.999 nM, the koff [2] was 0.000106 s⁻¹ and the kon [2] was 106000 M⁻¹ s⁻¹.

B8: Hab108.35 (antibody, V domains shown)
VH: EVTLKESGPVLVKPTETLTLTCTVSGFSLKSYGIQWVRQPPGKLLEWLGVIWSGGSADYNAAFISRLTISKDTSKSQVVLTMTNMDPVDTATYYCAGQYGSVWGQGTLVTVSS
VL: DIQMTQSPSSLSASVGDRVTITCRASQDIGDRLNWLQQKPGGAIKRLIYATSSLDSGVPSRFSGSGSGTEYTLTISSLQPEDFATYYCLQYAGSWTFGGGTKVEIK
notes: VL3 + VH5; full-length antibody
Molecule B8 has a Kd [2] of 0.28 nM, a koff [2] of 8.09e-05 s⁻¹ and a kon [2] of 290000 M⁻¹ s⁻¹.

B9: Hab108.45 (antibody, V domains shown)
VH: EVTLKESGPVLVKPTETLTLTCTVSGFSLKSYGIQWVRQPPGKLLEWLGVIWSGGSADYNAAFISRLTISKDTSKSQVVLTMTNMDPVDTATYYCAGQYGSVWGQGTLVTVSS
VL: DIQMTQSPSSLSASVGDRVTITCRASQDIGDRLNWLQQKPGGAIKRLIYATSSLDSGVPSRFSGSGSGSEYTLTISSLQPEDFADYYCLQYAGSWTFGGGTKVEIK
notes: VL4 + VH5; full-length antibody
Molecule B9 has a Kd [2] of 0.253 nM, a koff [2] of 7.38e-05 s⁻¹ and a kon [2] of 292000 M⁻¹ s⁻¹.

B10: Hab108.52 (antibody, V domains shown)
VH: EVTLKESGPVLVKPTETLTLTCTVSGFSLSSYGIQWIRQPPGKLLEWLAVIWSGGSADYNAAFISRLTISKDTSKSQVVLTMTNMDPVDTATYYCAGQYGSVWGQGTLVTVSS
VL: DIQMTQSPSSLSASVGDRVTITCRASQDIGDRLNWLQQKPGKAIKRLIYATSSLDSGVPKRFSGSGSGTEYTLTISSLQPEDFATYYCLQYAGSWTFGGGTKVEIK
notes: VL5 + VH2; full-length antibody
Molecule B10 has a Kd [2] of 0.93 nM, a koff [2] of 0.000241 s⁻¹ and a kon [2] of 260000 M⁻¹ s⁻¹.

B11: Hab108.53 (antibody, V domains shown)
VH: EVTLKESGPVLVKPTETLTLTCTVSGFSLSSYGIQWVRQPPGKLLEWLGVIWSGGSADYNAAFISRLTISKDTSKSQVVLTMTNMDPVDTATYYCAGQYGSVWGQGTLVTVSS
VL: DIQMTQSPSSLSASVGDRVTITCRASQDIGDRLNWLQQKPGKAIKRLIYATSSLDSGVPKRFSGSGSGTEYTLTISSLQPEDFATYYCLQYAGSWTFGGGTKVEIK
notes: VL5 + VH3; full-length antibody
For B11, the Kd [2] was 0.609 nM, the koff [2] was 0.000156 s⁻¹ and the kon [2] was 257000 M⁻¹ s⁻¹.

B12: Hab108.62 (antibody, V domains shown)
VH: EVTLKESGPVLVKPTETLTLTCTVSGFSLSSYGIQWIRQPPGKLLEWLAVIWSGGSADYNAAFISRLTISKDTSKSQVVLTMTNMDPVDTATYYCAGQYGSVWGQGTLVTVSS
VL: DIQMTQSPSSLSASVGDRVTITCRASQDIGDRLNWLQQKPGGAIKRLIYATSSLDSGVPKRFSGSGSGTEYTLTISSLQPEDFATYYCLQYAGSWTFGGGTKVEIK
notes: VL6 + VH2; full-length antibody
Work on B12 yielded a Kd [2] of 0.382 nM, a koff [2] of 8.68e-05 s⁻¹ and a kon [2] of 227000 M⁻¹ s⁻¹.

B13: Hab108.63 (antibody, V domains shown)
VH: EVTLKESGPVLVKPTETLTLTCTVSGFSLSSYGIQWVRQPPGKLLEWLGVIWSGGSADYNAAFISRLTISKDTSKSQVVLTMTNMDPVDTATYYCAGQYGSVWGQGTLVTVSS
VL: DIQMTQSPSSLSASVGDRVTITCRASQDIGDRLNWLQQKPGGAIKRLIYATSSLDSGVPKRFSGSGSGTEYTLTISSLQPEDFATYYCLQYAGSWTFGGGTKVEIK
notes: VL6 + VH3; full-length antibody
B13 gave a Kd [2] of 0.513 nM, a koff [2] of 0.000117 s⁻¹ and a kon [2] of 228000 M⁻¹ s⁻¹.

B14: Hab108.65 (antibody, V domains shown)
VH: EVTLKESGPVLVKPTETLTLTCTVSGFSLKSYGIQWVRQPPGKLLEWLGVIWSGGSADYNAAFISRLTISKDTSKSQVVLTMTNMDPVDTATYYCAGQYGSVWGQGTLVTVSS
VL: DIQMTQSPSSLSASVGDRVTITCRASQDIGDRLNWLQQKPGGAIKRLIYATSSLDSGVPKRFSGSGSGTEYTLTISSLQPEDFATYYCLQYAGSWTFGGGTKVEIK
notes: VL6 + VH5; full-length antibody
For B14, the Kd [2] was 0.246 nM, the koff [2] was 6.93e-05 s⁻¹ and the kon [2] was 281000 M⁻¹ s⁻¹.
